Laboratory results as given in patent publication US20200131274A1 (CRESCENDO BIOLOGICS, published 2020).

Legend:
[1] = biological target: T1, recombinant human PSMA (R&D, cat. no. 4234-ZN) (human, UniProt Q04609 44-750); assay: Octet RED384 BLI, PSMA on sensor, VH purified from periplasmic extracts
T1 construct: Bought protein; also called rhPSMA; Recombinant PMSA

[2] = biological target: T2, human prostate specific membrane antigen (PSMA), full-length, on cells (human, UniProt Q04609 1-750); assay: cell-based or functional assay
T2 sequence (Q04609 whole entry): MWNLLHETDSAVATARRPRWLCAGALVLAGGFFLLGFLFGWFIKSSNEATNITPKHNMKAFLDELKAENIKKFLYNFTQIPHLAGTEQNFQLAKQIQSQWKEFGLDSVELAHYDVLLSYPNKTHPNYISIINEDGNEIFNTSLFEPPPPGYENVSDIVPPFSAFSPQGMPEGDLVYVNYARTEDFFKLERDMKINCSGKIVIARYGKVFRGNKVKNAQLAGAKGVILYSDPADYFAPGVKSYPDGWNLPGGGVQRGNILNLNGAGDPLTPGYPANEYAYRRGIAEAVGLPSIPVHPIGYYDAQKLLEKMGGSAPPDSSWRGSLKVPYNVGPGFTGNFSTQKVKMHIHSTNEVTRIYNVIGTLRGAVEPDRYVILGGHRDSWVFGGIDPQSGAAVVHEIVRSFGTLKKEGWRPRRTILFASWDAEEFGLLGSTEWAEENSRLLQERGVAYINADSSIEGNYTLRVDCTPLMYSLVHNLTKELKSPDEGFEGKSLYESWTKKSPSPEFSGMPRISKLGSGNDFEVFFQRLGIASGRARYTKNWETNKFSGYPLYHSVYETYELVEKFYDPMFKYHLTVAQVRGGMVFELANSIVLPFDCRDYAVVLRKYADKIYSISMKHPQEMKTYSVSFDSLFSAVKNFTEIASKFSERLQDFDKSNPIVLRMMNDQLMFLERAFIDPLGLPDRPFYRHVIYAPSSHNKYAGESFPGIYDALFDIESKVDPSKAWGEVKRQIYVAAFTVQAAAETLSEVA

[3] = biological target: T2, human prostate specific membrane …; assay: cell-based or functional assay; remark: listed apart in the source
[4] = biological target: cynomolgus PSMA, full-length, on CHO cells (cynomolgus, UniProt A0A2K5VNZ0 1-750); assay: cell-based or functional assay

T1 sequence (Q04609 44-750 limits assumed): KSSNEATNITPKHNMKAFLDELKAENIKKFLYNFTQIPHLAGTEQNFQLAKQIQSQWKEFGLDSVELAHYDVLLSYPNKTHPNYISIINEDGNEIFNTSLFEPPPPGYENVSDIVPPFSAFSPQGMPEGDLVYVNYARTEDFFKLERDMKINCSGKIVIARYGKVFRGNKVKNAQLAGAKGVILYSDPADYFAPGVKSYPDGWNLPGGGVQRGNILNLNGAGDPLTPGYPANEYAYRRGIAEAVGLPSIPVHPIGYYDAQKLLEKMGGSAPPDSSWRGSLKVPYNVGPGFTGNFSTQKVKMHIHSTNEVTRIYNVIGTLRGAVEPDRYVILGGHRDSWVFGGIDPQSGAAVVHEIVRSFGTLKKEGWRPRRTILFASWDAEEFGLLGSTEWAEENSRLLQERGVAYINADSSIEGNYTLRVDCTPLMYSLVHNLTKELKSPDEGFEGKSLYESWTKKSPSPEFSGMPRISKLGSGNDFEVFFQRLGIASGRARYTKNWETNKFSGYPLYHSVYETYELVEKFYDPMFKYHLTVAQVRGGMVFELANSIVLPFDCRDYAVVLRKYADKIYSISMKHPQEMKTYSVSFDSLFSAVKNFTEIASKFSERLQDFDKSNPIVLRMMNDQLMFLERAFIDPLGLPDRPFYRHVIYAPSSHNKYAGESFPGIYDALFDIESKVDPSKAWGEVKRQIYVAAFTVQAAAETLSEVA

B1: single VH domain antibody 12.1 (VHH)
VHH: QVQLVESGGGVVQPGRSLRLSCAASGFTFSNFGMHWARQAPGKGLEWVAVISYDGNSKYYADTVKGRFTISRDNSKNTLYLEMNSLRADDTAVYYCAKGLWPPMDVRGQGTTVTVSS
notes: Human single VH domain antibody (Humabody); purified via the C-terminal His-tag, residues not tied
Kd [1]: 3.9 nM
koff [1]: 0.00137 s⁻¹

B2: single VH domain antibody 10.1 (VHH)
VHH: QVQLVESGGGLVQPGGSLRLSCAASGFTFSSYGMHWVRQAPGKGLEWVAFMSYDGSNKYYVDSVKGRFTISRDNSKNTLYLQMNSLRAEDTAVYYCAKGDYDFWSGYPDYDMDVWGQGTTVTVSS
notes: as for B1
Kd [1]: 95 nM
koff [1]: 0.00185 s⁻¹

B3: single VH domain antibody 14.1 (VHH)
VHH: EVQLVESGGEVKKPGASVKVSCKASGYTFTSYDINWVRQATGQGLEWMGWMNPNSGNTGYAQKFQGRVTMTRNTSISTAYMELSSLRSEDTAVYYCARGNGPGITGTTDYWGQGTLVTVSS
Kd [1]: 17 nM
koff [1]: 0.0011 s⁻¹

B4: single VH domain antibody 4.1 (VHH)
VHH: QVQLVESGGGVVQPGRSLRLSCVASGFPFISYGMHWVRQAPGKGREWVAVISYDGSNRYYADSVKGRFTISRDNSKNTLYLQMNSLRPEDTAVYYCAKERIFGVLTPDDFDIWGQGTTVTVSS
notes: as for B1
Kd [1]: 45 nM
koff [1]: 0.014 s⁻¹

B5: HiPEG B-2-B-His6 val-cit-PAB-MMAE (VHH)
chain: EVQLLESGGGLVQPGGSLRLSCAASGFSFSSYAMSWVRQAPGKGLEWVSSIGENDGTTDYADSVKGRFTISRDNSKSMLYLQMNSLRVEDTAVYYCVKDGVHWGQGTLVTVSSGGGGSGGGGSGGGGSGGGGSGGGGSGGGGSEVQLLESGGGLVQPGGSLRLSCAASGFSFSSYAMSWVRQAPGKGLEWVSSIGENDGTTDYADSVKGRFTISRDNSKSMLYLQMNSLRVEDTAVYYCVKDGVHWGQGTLVTVSS
modifications: HiPEG val-cit-PAB-MMAE attached via the C-terminal His6-tag, DAR 0.7
IC50 Toxin (nM), DU145 PSMA cells, 48 h [2]: 12.6 nM
Mean IC50, cytotoxicity on DU145 PSMA cells, 48 h [2]: 18 nM
IC50 (nM), cytotoxicity on DU145 PSMA cells, 72 h [3]: 21 nM
IC50 (toxin) nM, DU145 PSMA cells, 72 h [3]: 14.7 nM

B6: HiPEG A-1-B-His6 val-cit-PAB-MMAE (bispecific antibody)
chain: EVQLVESGGGVVQPGRSLRLSCAASGFSFSGYGMHWVRQAPGKGLEWVAYISYDGSNKYYADSVKGRFTISRDNSKNTLYLQMNSLRAEDTAVYYCAKDPAWGLRLGESSSYDFDIWGQGTMVTVSSGGGGSGGGGSEVQLLESGGGLVQPGGSLRLSCAASGFSFSSYAMSWVRQAPGKGLEWVSSIGENDGTTDYADSVKGRFTISRDNSKSMLYLQMNSLRVEDTAVYYCVKDGVHWGQGTLVTVSS
modifications: HiPEG val-cit-PAB-MMAE attached via the C-terminal His6-tag, DAR 1
IC50 Toxin (nM), DU145 PSMA cells, 48 h [2]: 0.67 nM
Mean IC50, cytotoxicity on DU145 PSMA cells, 48 h [2]: 0.67 nM
Mean Max % Cell kill, DU145 PSMA cells, 48 h [2]: 75%

B7: single VH domain antibody 11.1 (VHH)
VHH: EVQLVESGGGLVKPGGSLRLSCAASGFNLISYGMYWVRQAPGKGLEWVAVISYDGSNKNYADSVKGRFTISRDNSKNTLFLQMNSLRVEDTAVYYCAKGGNALYSSGWPDDGFDIRGQGTMVTVSS
notes: as for B1
Kd [1]: 26 nM
koff [1]: 0.00149 s⁻¹

B8: 1.1-6GS-2.1 (bispecific antibody)
chain: EVQLLESGGGLVQPGGSLRLSCAASGFSFSSYAMSWVRQAPGKGLEWVSSIGENDGTTDYADSVKGRFTISRDNSKSMLYLQMNSLRVEDTAVYYCVKDGVHWGQGTLVTVSSGGGGSGGGGSGGGGSGGGGSGGGGSGGGGSEVQLVESGGGVVQPGRSLRLSCAASGFSFSGYGMHWVRQAPGKGLEWVAYISYDGSNKYYADSVKGRFTISRDNSKNTLYLQMNSLRAEDTAVYYCAKDPAWGLRLGESSSYDFDIWGQGTMVTVSS
His-ZAP cell killing, cyno PSMA Average EC50 [4]: 0.012 nM

B9: 1.1-6GS-2.15 (bispecific antibody)
chain: EVQLLESGGGLVQPGGSLRLSCAASGFSFSSYAMSWVRQAPGKGLEWVSSIGENDGTTDYADSVKGRFTISRDNSKSMLYLQMNSLRVEDTAVYYCVKDGVHWGQGTLVTVSSGGGGSGGGGSGGGGSGGGGSGGGGSGGGGSEVQLVESGGGVVQPGRSLRLSCAASGFSFSGYGLHWVRQAPGKGLEWVAYISYDKSNKYYADKVKGRFTISRDNSKNTLYLQMNSLRAEDTAVYYCAKDPAWGLRLGESSSYDFDIWGQGTMVTVSS
His-ZAP cell killing, cyno PSMA Average EC50 [4]: 0.0086 nM

B10: 1.11-6GS-2.15 (bispecific antibody)
chain: EVQLLESGGGLVQPGGSLRLSCAASGFSFSSYALSWVRQAPGKGLEWVSSIGENNDTTDYADNVKGRFTISRDNSKNTLYLQMNSLRVEDTAVYYCVKDGVHWGQGTLVTVSSGGGGSGGGGSGGGGSGGGGSGGGGSGGGGSEVQLVESGGGVVQPGRSLRLSCAASGFSFSGYGLHWVRQAPGKGLEWVAYISYDKSNKYYADKVKGRFTISRDNSKNTLYLQMNSLRAEDTAVYYCAKDPAWGLRLGESSSYDFDIWGQGTMVTVSS
His-ZAP cell killing, cyno PSMA Average EC50 [4]: 0.009 nM

B11: 1.16-6GS-2.15 (bispecific antibody)
chain: EVQLLESGGGLVQPGGSLRLSCAASGFSFSSYALSWVRQAPGKGLEWVSSIGENNHTTDYADTVKGRFTISRDNSKNTLYLQMNSLRVEDTAVYYCVKDGVHWGQGTLVTVSSGGGGSGGGGSGGGGSGGGGSGGGGSGGGGSEVQLVESGGGVVQPGRSLRLSCAASGFSFSGYGLHWVRQAPGKGLEWVAYISYDKSNKYYADKVKGRFTISRDNSKNTLYLQMNSLRAEDTAVYYCAKDPAWGLRLGESSSYDFDIWGQGTMVTVSS
His-ZAP cell killing, cyno PSMA Average EC50 [4]: 0.011 nM

B12: 1.1-6GS-2.22 (bispecific antibody)
chain: EVQLLESGGGLVQPGGSLRLSCAASGFSFSSYAMSWVRQAPGKGLEWVSSIGENDGTTDYADSVKGRFTISRDNSKSMLYLQMNSLRVEDTAVYYCVKDGVHWGQGTLVTVSSGGGGSGGGGSGGGGSGGGGSGGGGSGGGGSEVQLVESGGGVVQPGRSLRLSCAASGFSFSGYGTHWVRQAPGKGLEWVAYISYDGSNKYYAAPVKGRFTISRDNSKNTLYLQMNSLRAEDTAVYYCAKDAAWGLRLGESSSYDFDIWGQGTMVTVSS
His-ZAP cell killing, cyno PSMA Average EC50 [4]: 0.0078 nM

B13: 1.18-6GS-2.15 (bispecific antibody)
chain: EVQLLESGGGLVQPGGSLRLSCAASGFSFSSYALSWVRQAPGKGLEWVSSIGENNATTDYAASVKGRFTISRDNSKNTLYLQMNSLRVEDTAVYYCVKDGVHWGQGTLVTVSSGGGGSGGGGSGGGGSGGGGSGGGGSGGGGSEVQLVESGGGVVQPGRSLRLSCAASGFSFSGYGLHWVRQAPGKGLEWVAYISYDKSNKYYADKVKGRFTISRDNSKNTLYLQMNSLRAEDTAVYYCAKDPAWGLRLGESSSYDFDIWGQGTMVTVSS
His-ZAP cell killing, cyno PSMA Average EC50 [4]: 0.01 nM

B14: 1.1-6GS-2.17 (bispecific antibody)
chain: EVQLLESGGGLVQPGGSLRLSCAASGFSFSSYAMSWVRQAPGKGLEWVSSIGENDGTTDYADSVKGRFTISRDNSKSMLYLQMNSLRVEDTAVYYCVKDGVHWGQGTLVTVSSGGGGSGGGGSGGGGSGGGGSGGGGSGGGGSEVQLVESGGGVVQPGRSLRLSCAASGFSFSGYGMHWVRQAPGKGLEWVAYISYDASNKYYADNVKGRFTISRDNSKNTLYLQMNSLRAEDTAVYYCAKDPAWGLRLGESSSYDFDIWGQGTMVTVSS
His-ZAP cell killing, cyno PSMA Average EC50 [4]: 0.011 nM

B15: HiPEG C-His6 val-cit-PAB-MMAE (VHH)
VHH: EVQLVESGGGVVQPGRSLRLSCAASGFPLISYGMHWVRQAPGKGLEWVAFMTYDGSNRYYADSVKGRFTISRDNSKNTLYLQMNSLRDEDTALYYCARDRIVGGRVPDAFDIWGQGTMVTVSS
modifications: HiPEG val-cit-PAB-MMAE attached via the C-terminal His6-tag, DAR 1
IC50 Toxin (nM), DU145 PSMA cells, 48 h [2]: 5.21 nM
Mean IC50, cytotoxicity on DU145 PSMA cells, 48 h [2]: 5.2 nM
Mean Max % Cell kill, DU145 PSMA cells, 48 h [2]: 59%

B16: HiPEG A-2-B-His6 val-cit-PAB-MMAE (bispecific antibody)
chain: EVQLVESGGGVVQPGRSLRLSCAASGFSFSGYGMHWVRQAPGKGLEWVAYISYDGSNKYYADSVKGRFTISRDNSKNTLYLQMNSLRAEDTAVYYCAKDPAWGLRLGESSSYDFDIWGQGTMVTVSSGGGGSGGGGSGGGGSGGGGSGGGGSGGGGSEVQLLESGGGLVQPGGSLRLSCAASGFSFSSYAMSWVRQAPGKGLEWVSSIGENDGTTDYADSVKGRFTISRDNSKSMLYLQMNSLRVEDTAVYYCVKDGVHWGQGTLVTVSSAAAHHHHHH
modifications: HiPEG val-cit-PAB-MMAE attached via the C-terminal His6-tag, DAR 1
IC50 Toxin (nM), DU145 PSMA cells, 48 h [2]: 0.37 nM
Mean IC50, cytotoxicity on DU145 PSMA cells, 48 h [2]: 0.37 nM
Mean Max % Cell kill, DU145 PSMA cells, 48 h [2]: 78%
IC50 (nM), cytotoxicity on DU145 PSMA cells, 72 h [3]: 0.29 nM
IC50 (toxin) nM, DU145 PSMA cells, 72 h [3]: 0.29 nM

B17: HiPEG C-2-C-His6 val-cit-PAB-MMAE (VHH)
chain: EVQLVESGGGVVQPGRSLRLSCAASGFPLISYGMHWVRQAPGKGLEWVAFMTYDGSNRYYADSVKGRFTISRDNSKNTLYLQMNSLRDEDTALYYCARDRIVGGRVPDAFDIWGQGTMVTVSSGGGGSGGGGSGGGGSGGGGSGGGGSGGGGSEVQLVESGGGVVQPGRSLRLSCAASGFPLISYGMHWVRQAPGKGLEWVAFMTYDGSNRYYADSVKGRFTISRDNSKNTLYLQMNSLRDEDTALYYCARDRIVGGRVPDAFDIWGQGTMVTVSS
modifications: HiPEG val-cit-PAB-MMAE attached via the C-terminal His6-tag, DAR 1
IC50 Toxin (nM), DU145 PSMA cells, 48 h [2]: 4.54 nM
Mean IC50, cytotoxicity on DU145 PSMA cells, 48 h [2]: 4.5 nM
Mean Max % Cell kill, DU145 PSMA cells, 48 h [2]: 69%

B18: HiPEG A-2-A-His6 val-cit-PAB-MMAE (VHH)
chain: EVQLVESGGGVVQPGRSLRLSCAASGFSFSGYGMHWVRQAPGKGLEWVAYISYDGSNKYYADSVKGRFTISRDNSKNTLYLQMNSLRAEDTAVYYCAKDPAWGLRLGESSSYDFDIWGQGTMVTVSSGGGGSGGGGSGGGGSGGGGSGGGGSGGGGSEVQLVESGGGVVQPGRSLRLSCAASGFSFSGYGMHWVRQAPGKGLEWVAYISYDGSNKYYADSVKGRFTISRDNSKNTLYLQMNSLRAEDTAVYYCAKDPAWGLRLGESSSYDFDIWGQGTMVTVSSAAAHHHHHH
modifications: HiPEG val-cit-PAB-MMAE attached via the C-terminal His6-tag, DAR 1
IC50 Toxin (nM), DU145 PSMA cells, 48 h [2]: 0.32 nM
Mean IC50, cytotoxicity on DU145 PSMA cells, 48 h [2]: 0.32 nM
Mean Max % Cell kill, DU145 PSMA cells, 48 h [2]: 57%
IC50 (nM), cytotoxicity on DU145 PSMA cells, 72 h [3]: 0.19 nM
IC50 (toxin) nM, DU145 PSMA cells, 72 h [3]: 0.19 nM

B19: single VH domain antibody 6.1 (VHH)
VHH: QVQLQESGPGLVKPSQTLSLTCTVSGGSISNSGYYWSWVRQHPGKDLEWIGFIYYNGSIHYNPSLKSRVIISVDTSKNQFSLKMNSVTAADTAVYYCARDGDDYGDYLRGQGTLVTVSS
notes: as for B1
Kd [1]: 16 nM
koff [1]: 0.00365 s⁻¹

B20: single VH domain antibody 13.1 (VHH)
VHH: EVQLVESGGGSVQPGGSLRLSCAASGFTFSDYWMTWVRQVPGKGLEWVANIKQDGSEKYYVDSVKGRFTISRDNAKNSLYLQMNSLRAEDTAVYYCARDRGGAVALYHNGMDMGGQGTTVTVSS
notes: as for B1
Kd [1]: 4.2 nM
koff [1]: 0.0006 s⁻¹
